For series [1], the target named is T1, M2-1(58-177) core domain (human respiratory syncytial virus (hRSV, strain Long per Fig S7)) (UniProt P04545).
T1 sequence: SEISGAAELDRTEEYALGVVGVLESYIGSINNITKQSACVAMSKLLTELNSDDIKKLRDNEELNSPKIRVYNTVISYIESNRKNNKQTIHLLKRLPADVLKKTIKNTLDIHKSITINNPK
Briefly: NMR titration. The conditions noted are these: NMR: 50-60 µM protein, 293 K, 14.1 T, 1:1 model, buffer/salt/pH not in material; EMSA: 100 µM GST fusion eluted with GSH, ~50 µM tRNA, 1 h room temperature …. For orientation: Mobility shift assays separate free from complexed probe on a gel.

Series [2] has as its target RSV phosphoprotein P, full-length (P_(1–241)) (UniProt P12579). Description: GST pull-down. The conditions noted are these: parent: est. 100; read off a plot.
Series [3] deals with RSV phosphoprotein P, full-length (P_(1–241)) (human respiratory syncytial virus (strain Long)) (UniProt P12579). Description: ITC; M2-1_(58–177) (335 µM, 20 injections of 2 µL) injected into P (33 µM) in the cell; 1× PBS; 20°C. On the technique in general: In ITC the heat of successive injections is recorded.
For series [4], the target named is GST-M2-1 L148A (full-length) (human respiratory syncytial virus (strain Long)). Description: pull-down; ~25 µM GST-M2-1 (or GST) on Glutathione-Sepharose 4B beads in PBS with a 3-fold molar excess of purified P, 1 h at 20°C; washed with PBS; SDS-PAGE, Coomassie blue, bands quantified with ImageJ.
Series [5] deals with GST-M2-1 N163D (full-length) (human respiratory syncytial virus (strain Long)). The description is as above.
Series [6] addresses GST-M2-1 R126D (full-length) (human respiratory syncytial virus (strain Long)). The description is as above.
Series [7] deals with GST-M2-1 T130D (full-length) (human respiratory syncytial virus (strain Long)). Described as above.
The target of series [8] is GST-M2-1 T160D (full-length) (human respiratory syncytial virus (strain Long)). The description is as above.
The next series deals with T2, M2-1(58-177) core domain (human respiratory syncytial virus …, UniProt P04545 58-177).
T2 sequence: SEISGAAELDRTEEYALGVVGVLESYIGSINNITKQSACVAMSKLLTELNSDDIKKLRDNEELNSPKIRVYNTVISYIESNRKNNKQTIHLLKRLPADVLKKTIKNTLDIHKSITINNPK
Description: NMR titration; NMR: 50-60 µM protein, 293 K, 14.1 T, 1:1 model, buffer/salt/pH not in material; EMSA: 100 µM GST fusion eluted with GSH, ~50 µM tRNA, 1 h room temperature, 1.5% agarose, 1x Tris-Glycine, 4°C. The conditions noted are these: protein: recombinant, tags: N-terminal Gly-Ser left after thrombin cleavage of GST.

Where [9] appears, read: predicted hairpin, poly-U loop, 2-3 bp stem.

One may read the Kd as the equilibrium constant for the complex coming apart. As usually defined, the stoichiometry N is a count of units in the complex or per binding partner.

For the molecule AGUUAUAUAAAA / UUUUAUAUAACU [GE_F-ds], the equilibrium dissociation constant (Kd) in series [1] is 4.5 µM.

Consider “GST-M2-1 (full-length M2-1 fused to GST), WT K92D”, for which the percent of parent in series [2] came to 54 % WT.

Consider “GST-M2-1 (full-length M2-1 fused to GST), WT K150D”, for which the percent of parent in series [2] was 63 % WT.

In the case of “GST-M2-1 (full-length M2-1 fused to GST), WT R151D”, the percent of parent in series [2] stood at 44 % WT.

In [3], “RSV M2-1_(58–177) core domain (domain or fragment)” displayed a Kd of 3 µM and a stoichiometry N of 1.

For the molecule “RSV phosphoprotein P, full-length (P_(1–241)) (from UniProt P12579 1-241) (natural protein)”, the decrease in P binding against WT in series [4], in series [5], in series [6], in series [7] and in series [8] was over 50% each time.

For UAUUUGCCCC (ssRNA) [GS-neg], the dissociation constant Kd with M2-1(58-177) core domain was 110 ± 15 µM.

Turning to CCAAAAAAAU (ssRNA) [short A-rich (short polyA)], in the series with M2-1(58-177) core domain, the dissociation constant (Kd) was determined as 22 ± 6 µM.

Consider CGCAUUUUUUCGCGU (ssRNA) [leader-neg], for which the Kd with M2-1(58-177) core domain (setting [9]) was 75 ± 15 µM.

GCGCUUUUUUAAGCGC (structured_RNA) [UGA2]: the Kd with M2-1(58-177) core domain (hairpin, 5 bp, U-stretch) was found to be 60 ± 10 µM.

For the molecule UUUUAUAUAACU (ssRNA) [GE_F-neg], the Kd with M2-1(58-177) core domain was determined as 85 ± 25 µM.

For CCCAUUUUUUUGGUU (ssRNA) [long U-rich], the Kd in the series with M2-1(58-177) core domain (setting [9]) was 125 ± 35 µM.

In the case of ACGCGAAAAAAU (ssRNA) [leader-pos], the Kd with M2-1(58-177) core domain (partial self-association (two G-C and U-A pairs) seen by NMR) stood at 2.5 ± 1.5 µM.

With TTTTATATAACT (ssDNA) [GE_F-DNA], in the series with M2-1(58-177) core domain, the Kd was 250 ± 70 µM.

For the molecule UUUUUAAUUAACU (ssRNA) [GE_SH-neg], the Kd with M2-1(58-177) core domain turned out to be 75 ± 15 µM.

The values above are taken from PMC3364950, “Structure and Functional Analysis of the RNA- and Viral Phosphoprotein-Binding Domain of Respiratory Syncytial Virus M2-1 Protein”.
